# Laboratory results published in patent US20030068788A1.
# T1: ferredoxin encoded by fd233 from strain I-1529
# T1 chain: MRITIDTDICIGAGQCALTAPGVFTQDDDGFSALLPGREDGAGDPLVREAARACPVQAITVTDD
# T2: ferredoxin encoded by fd233 from strain I-1529 (Streptomyces tubercidicus strain I-1529)
# T2 sequence: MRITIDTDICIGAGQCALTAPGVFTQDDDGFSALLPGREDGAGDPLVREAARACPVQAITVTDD
# T3: P450Ema1A, N-terminally truncated P450Ema1 encoded by ema1A (Streptomyces tubercidicus strain R-922)
# T3 sequence: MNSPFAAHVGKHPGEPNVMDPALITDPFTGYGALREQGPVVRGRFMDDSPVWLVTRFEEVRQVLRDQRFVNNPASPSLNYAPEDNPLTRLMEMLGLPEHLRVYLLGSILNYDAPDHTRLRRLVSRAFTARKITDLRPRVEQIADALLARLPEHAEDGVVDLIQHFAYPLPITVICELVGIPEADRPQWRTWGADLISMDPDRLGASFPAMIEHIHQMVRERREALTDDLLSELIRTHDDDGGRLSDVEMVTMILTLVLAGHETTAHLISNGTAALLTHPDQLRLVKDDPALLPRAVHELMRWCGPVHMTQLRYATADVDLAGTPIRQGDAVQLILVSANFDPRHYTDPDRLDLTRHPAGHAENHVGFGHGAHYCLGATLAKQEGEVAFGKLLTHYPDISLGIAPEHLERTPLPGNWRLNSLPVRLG
# T4: P450Ema1 monooxygenase from Streptomyces tubercidicus strain R-922 (Streptomyces tubercidicus strain R-922)
# T4 sequence: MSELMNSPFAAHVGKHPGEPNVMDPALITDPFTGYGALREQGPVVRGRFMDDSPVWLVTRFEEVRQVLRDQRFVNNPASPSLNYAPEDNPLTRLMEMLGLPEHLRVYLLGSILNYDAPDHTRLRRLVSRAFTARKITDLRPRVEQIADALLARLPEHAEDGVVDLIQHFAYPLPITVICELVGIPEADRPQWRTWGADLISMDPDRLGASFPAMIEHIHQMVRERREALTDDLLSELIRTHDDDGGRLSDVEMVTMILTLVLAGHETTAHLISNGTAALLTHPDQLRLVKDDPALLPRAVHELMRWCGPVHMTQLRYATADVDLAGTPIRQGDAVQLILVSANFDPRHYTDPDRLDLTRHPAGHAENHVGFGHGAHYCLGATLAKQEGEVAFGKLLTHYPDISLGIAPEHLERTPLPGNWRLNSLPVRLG
# T5: P450Ema2 monooxygenase from Streptomyces tubercidicus strain I-1529 (Streptomyces tubercidicus strain I-1529)
# T5 sequence: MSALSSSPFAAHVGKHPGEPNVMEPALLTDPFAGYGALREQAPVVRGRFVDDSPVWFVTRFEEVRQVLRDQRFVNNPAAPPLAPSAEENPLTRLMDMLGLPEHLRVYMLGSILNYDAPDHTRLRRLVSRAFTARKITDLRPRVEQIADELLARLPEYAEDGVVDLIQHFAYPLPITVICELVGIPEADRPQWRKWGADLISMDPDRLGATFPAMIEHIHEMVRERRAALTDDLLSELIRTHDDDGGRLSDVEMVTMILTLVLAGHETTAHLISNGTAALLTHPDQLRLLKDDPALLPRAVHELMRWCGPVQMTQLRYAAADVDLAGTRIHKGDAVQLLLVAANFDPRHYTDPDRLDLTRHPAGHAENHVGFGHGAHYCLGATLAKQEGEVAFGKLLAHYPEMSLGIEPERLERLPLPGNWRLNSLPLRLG
# Key:
# [1] = target: T1, ferredoxin encoded by fd233 from strain …
# [2] = target: T2, ferredoxin encoded by fd233 from strain I-1529 (Streptomyces tubercidicus strain I-1529); test: cell-based or functional assay
# [3] = target: T3, P450Ema1A, N-terminally truncated P450Ema1 encoded by ema1A (Streptomyces tubercidicus strain R-922); test: cell-based or functional assay
# [4] = target: T4, P450Ema1 monooxygenase from Streptomyces tubercidicus strain R-922 (Streptomyces tubercidicus strain R-922); test: cell-based or functional assay
# [5] = target: T5, P450Ema2 monooxygenase from Streptomyces tubercidicus strain I-1529 (Streptomyces tubercidicus strain I-1529); test: cell-based or functional assay
binder,measurement,setting,value
ferredoxin reductase encoded by fre16 from strain I-1529 (enzyme) VVDAHQTFVIVGGGLAGAKAAETLRAEGFTGRVILICDERDHPYERPPLSKGFLLGKEERDSVFVHEPAWYAQAQIELHLGQPAVRLDPEAKTVRLGDGTLIAYDKLLLATGAEPRRLDIPGTGLAGVHHLRRLAHAERLRGVLASLGRDNGHLVIAGAGWIGLEVAAAARSYGAEVTVVEAAPTPLHGILGPELGGLFTELHRAHGVRFHFGARFTEIVGQDGMVLAVRTDDGEEHPAHDVLAAIGAAPRTALAEQAGLDLADPEAGGGVAVDATLRTSDPYIYAAGDVAAADHPLLDTRLRVEHWANALNGGPAAARAMLGQDISYDRVPYFFSDQYDVGMEYSGYAPPGSYAQVVCRGDVAKREFIAFWLGEDGRLLAGMNVNVWDVAETIQQLIRGGVRLEPGELADPEVPLTSLLP,"biocatalysis activity, S. lividans ZX7 with ema1/fd233/fre operons in pTUA, pTBBKA and pEAA",[1],In each case there was no impact in S. lividans by any of the fre genes on biocatalysis activity
same,"conversion of avermectin to 4″-keto-avermectin, P. putida ATCC 17453 with the ema1/fd233/fre16 operon (whole cell assay; 23% without fre16)",[2],44 % conversion
ferredoxin reductase encoded by fre14 (protein) MAQNTAFIIAGAGLAGAKAAETLRAEGFGGPVLLLGDERERPYERPPLSKGYLLGTSEREKAYVHPPQWYAEHDVDLRLGNAVTALDPAGHEVTLADGSRLGYAKLLLATGSTPRRLPVPGADLDGVHTLRYLADSDRLKDLFRSASRIVVIGGGWIGLETTAAARAAGVEVTVLESAPLPLLGVLGREVAQVFADLHTEHGVALRCDTQVTEITGTNGAVDGVRLADGTRIAADAVIVGVGITPNSETAAAAGLKVDNGVVVDERLCSSHPDIYAAGDVANAYHPLLGKHLRVEHWANALHQPKTAARAMLGGEAGYDRLPYFFTDQYDLGMEYTGHVEPGGYDRVVFRGDTGAREFIAFWLSGGRVLAGMNVNVWDVTDPIRALVASGRAVDPERLADADVPLADLVP,"biocatalysis activity, S. lividans ZX7 with ema1/fd233/fre operons in pTUA, pTBBKA and pEAA",[1],In each case there was no impact in S. lividans by any of the fre genes on biocatalysis activity
ferredoxin encoded by fd233 from strain I-1529 (protein) MRITIDTDICIGAGQCALTAPGVFTQDDDGFSALLPGREDGAGDPLVREAARACPVQAITVTDD,"% Conversion of avermectin, 16 hrs (S. avermitilis MOS-0001 + pTBBKA-ema1A/fd233, whole cells)",[3],28.5 % conversion
same,"% Conversion of avermectin, 16 hrs (S. avermitilis MOS-0001 + pTUA-ema1A/fd233, whole cells)",[3],24 % conversion
same,"% Conversion of Avermectin, 2 hour (S. lividans ZX7 + pEAA-ema1/fd233, whole cells)",[4],8.26 % conversion
same,"% Conversion of Avermectin, 2 hour (S. lividans ZX7 + pTBBKA-ema1/fd233, whole cells)",[4],8.89 % conversion
same,"% Conversion of Avermectin, 2 hour (S. lividans ZX7 + pTUA-ema1/fd233, whole cells)",[4],23.3 % conversion
same,"% Conversion of Avermectin, 16 hour (Pseudomonas putida + pRK-ema1/fd233, whole cells)",[4],32 % conversion
same,"% Conversion of Avermectin, 16 hour (S. lividans ZX7 + pEAA-ema1/fd233, whole cells)",[4],10.7 % conversion
same,"% Conversion of Avermectin, 16 hour (S. lividans ZX7 + pTBBKA-ema1/fd233, whole cells)",[4],31 % conversion
same,"% Conversion of Avermectin, 16 hour (S. lividans ZX7 + pTUA-ema1/fd233, whole cells)",[4],61.2 % conversion
same,biocatalysis activity of pTUA-ema1/fd233 in S. lividans relative to pTUA-ema1 (fold),[4],1.5 to 3 fold
same,"% Conversion of Avermectin, 2 hour (S. lividans ZX7 + pTUA-ema2/fd233, whole cells)",[5],1.85 % conversion
same,"% Conversion of Avermectin, 16 hour (S. lividans ZX7 + pTUA-ema2/fd233, whole cells)",[5],6.4 % conversion
ferredoxin reductase encoded by fre3 (protein) VVDAHQTFVIVGGGLAGAKAAETLRAEGFTGRVILICDERDHPYERPPLSKGFLLGKEERDSVFVHEPAWYAQAQIELHLGQPAVRLDPEGRTVRLGDGTLIAYDKLLLATGAEPRRLDIPGTGLAGVHHLRRLAHAERLRGVLASLGRDNGHLVIAGAGWIGLEVAAAARSYGAEVTVVEAAPTPLHGILGPELGGLFTDLHREHGVRFHFGARFTEIVGEGGMVLAVRTDDGEEHPAHDVLAAIGAAPRTALAEQAGLDLADPETGGGVAVDAALRTSDPYIYAAGDVAAADHPLLDTRLRVEHWANALNGGPAAARAMLGQDISYDRIPYFFSDQYDVGMEYSGYAPPGSYAQVVCRGDVAKREFIAFWLAADGRLLAGMNVNVWDVAESIQQLIRSGAPLEPGALADPQVPLAALLP,"biocatalysis activity, S. lividans ZX7 with ema1/fd233/fre operons in pTUA, pTBBKA and pEAA",[1],In each case there was no impact in S. lividans by any of the fre genes on biocatalysis activity
ferredoxin reductase encoded by fre12 (protein) MPAARRRLRPPHRSGDLPARPPGRAHPPRDRPGRHDLRPSRRGGGHRRMKSVAVIGASLAGLYAARSLRSQGFDGRLVIVGDECHGPYDRPPLSKDFLTGATDPGRLALADAEEIAELDAEWLLGTRATGLDTGGRTVLLDGGRSLTTDGVVLATGAAPRLLPGPVPAGVHTLRTLDDAQALRADLAPAPVRVVVIGGGFIGAEVASSCAALGHDVTVVEAAPLPLVPQLGHAMAEICAALHADHGVTLLTGTGVARLRSEGDGRRVTGVELTDGRLLPADVVVVGIGVRPRTAWLTDSGLPLDDGVLCDAGCVTPLPAVVAVGDVARVDGARAEHWTSATEQAAVAARNLLAGSTVATHRSLPYFWSDQYGVRIQFAGHRLPTDTPRVLEGSPDDRSFLACYERDGRTTAVLALNRPRPFMRLRRELARTALSATT,"biocatalysis activity, S. lividans ZX7 with ema1/fd233/fre operons in pTUA, pTBBKA and pEAA",[1],In each case there was no impact in S. lividans by any of the fre genes on biocatalysis activity
